Assay results: patent US20100190693

How the values were obtained:
[1] = target: T1, GST-TORC2 (aa 161-181), wild-type (UniProt Q53ET0)
T1 sequence: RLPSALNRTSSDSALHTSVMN

[2] = target: GST-TORC2 (aa 161-181) Ser171Ala (UniProt Q53ET0)
GST-TORC2 (aa 161-181) Ser171Ala, sequence (Q53ET0 whole entry S171A, looked up, the tested form may be a part): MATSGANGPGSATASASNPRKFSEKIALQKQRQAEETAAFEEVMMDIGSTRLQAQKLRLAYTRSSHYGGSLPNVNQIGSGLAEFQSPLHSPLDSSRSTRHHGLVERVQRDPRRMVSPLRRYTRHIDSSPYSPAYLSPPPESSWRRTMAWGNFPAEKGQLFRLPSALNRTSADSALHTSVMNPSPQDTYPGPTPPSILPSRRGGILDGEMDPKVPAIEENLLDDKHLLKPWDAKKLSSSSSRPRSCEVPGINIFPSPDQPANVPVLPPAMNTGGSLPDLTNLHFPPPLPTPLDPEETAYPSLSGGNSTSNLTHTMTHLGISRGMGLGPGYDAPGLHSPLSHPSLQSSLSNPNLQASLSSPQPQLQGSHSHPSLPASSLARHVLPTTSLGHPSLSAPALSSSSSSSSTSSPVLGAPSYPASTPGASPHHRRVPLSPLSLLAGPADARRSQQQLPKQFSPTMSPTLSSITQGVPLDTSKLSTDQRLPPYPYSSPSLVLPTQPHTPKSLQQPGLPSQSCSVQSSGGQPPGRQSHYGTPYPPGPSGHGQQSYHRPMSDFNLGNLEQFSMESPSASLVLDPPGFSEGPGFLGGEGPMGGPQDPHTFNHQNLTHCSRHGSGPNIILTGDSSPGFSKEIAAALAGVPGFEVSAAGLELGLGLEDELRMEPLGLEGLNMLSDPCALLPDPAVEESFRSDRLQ

Substance: purified AMPK (AMP-activated protein kinase) (Upstate Biotech)
- in vitro kinase assay, 32P incorporation [1]: Activated AMPK phosphorylated wild-type, but not Ser171Ala mutant GST-TORC2 (161-181) peptide in vitro
- in vitro kinase assay, 32P incorporation [2]: Activated AMPK phosphorylated wild-type, but not Ser171Ala mutant GST-TORC2 (161-181) peptide in vitro
